Series [1] in a line: pH-dependent interaction of HA-pHLIP agents with POPC liposomes (tryptophan fluorescence). The conditions noted are these: 7 μM agent, 25°C; for cooperativity (n) of state II to state III transition / mid-point (pK) of state II to state III transition: pH-dependent insertion into POPC liposome bilayer, shift of fluorescence maximum vs pH, Henderson-Hasselbalch fit; for cooperativity (n) of state II to state III transition / mid-point (pK) of state II to state III transition / λmax in state III / λmax in state II: 1.4 mM POPC; for λmax in state I / λmax in state III / λmax in state II: position of tryptophan fluorescence maximum, excitation 295 nm; for λmax in state I: HA-pHLIP in solution at pH8; for λmax in state III: HA-pHLIP with POPC liposomes at pH3 (membrane-inserted); for λmax in state II: HA-pHLIP with POPC liposomes at pH8 (membrane-adsorbed). It is filed as physicochemical.

For series [2], the system named is murine melanoma B16F10 cells. Briefly: Treatment with Gal-pHLIP in B16F10 tumor model in A3galt2 knockout mice. It is filed as in vivo, mouse. Conditions: B16F10 tumors in A3galt2 knockout mice immunized with HSA-Gal/CFA and HSA-Gal/IFA; IP 80 μM 450 μl each day for 10 days; tumors weighed day 12; versus untreated control; statistically significant. How it is done: A3galt2 knockout female and male mice were immunized by IP injection of Galα1-3Galβ-4Glc-HSA (HSA-Gal) (Dextra Laboratories) (day 1) (HSA is human serum albumin), at a concentration of 0.2 mg/ml emulsified at a ratio 1:1 with CFA. On days 14 and 21 after the first immunization, mice were boosted by IP injection of 200 μl of HSA-Gal (0.2 mg/ml) emulsified at a ratio 1:1 with IFA.
A3galt2 knockout female and male mice immunized with HSA-Gal and CFA/IFA adjuvants received a single SQ injection of 10^6 murine melanoma B16F10 cells (ATCC CRL-6475) in the right flank on day 1. On day 2, mice were randomized into groups and tri-Gal-pHLIP was administered via IP injections each day (80 μM 450 μl per injection). […] All mice in the control and treated groups were euthanized on day 12, tumors were collected and weighed.
The Kolmogorov-Smirnov two-tailed non-parametric test was used to compare two samples at a significance level of 0.05.

Series [3] has as its system murine mammary carcinoma 4T1 cells. Briefly: Treatment with HA-pHLIP agents in 4T1 tumor mouse model. It is filed as in vivo. The conditions noted are these: 4T1 flank tumors in BALB/c mice immunized with KLH-HA/CFA and KLH-HA/IFA; IP 40–60 µM 400 μl every second day from day 3 or 4; tumors weighed typically days 17–19; mean of control group = 100%.
For the next series, the system named is anti-HA antibodies. Conditions: mouse, in vivo, ip.
Series [4] concerns murine melanoma B16F10 cells. The conditions noted are these: B16F10 flank tumors in BALB/c mice immunized with 2 injections of KLH-HA/AddaVax; IP 40 μM 400 μl on days 1, 2 and 3 from about 100 mm^3; tumors weighed day 7; mean of control group = 100%.

On to “(Az)GGKGGGK[HA-Peg12]PWRAYLELLFPTETLLLELLLA [HA-Peg12-pHLIP4, v2, single HA-Peg12 on second Lys of pHLIP4]”, for which, in series [1], the “cooperativity (n) of state II to state III transition” value (“cooperativity (n) of state II” below) is given as 2.2, the “mid-point (pK) of state II to state III transition” value (“mid-point (pK) of state II” below) is given as 6.8, the “λmax in state I” value amounted to 348 nm and the “λmax in state III” value amounted to 337 nm. In addition, the “λmax in state II” value in series [1] was 343 nm.
Consider “Galα(1,3)Galβ(1,4)Glc-Peg4-NHC(O)-AADDQNPWRAYLDLLFPTDTLLLDLLWA-OH [Gal-pHLIP]”, for which the “reduction of tumor growth” value in series [2] is on record as 66%.
With “(Az)GGK[HA-Peg12]GGGK[HA-Peg12]PWRAYLELLFPTETLLLELLLA [2(HA-Peg12)-pHLIP4]”, in series [1], the “cooperativity (n) of state II” value turned out to be 1.3, the “mid-point (pK) of state II” value was found to be 5.8, the “λmax in state I” value came to 347 nm and the “λmax in state III” value came to 337 nm. The “λmax in state II” value in series [1] is 344 nm. This substance also returned a Norm. tumor weight in series [3] of 55.3%.
Take “K(N3)[HA-Peg12]GGGGGK(N3)[HA-Peg12]PWRAYLELLFPTETLLLELLLA [2(HA-Peg12)-pHLIP5]”: in series [1], the “cooperativity (n) of state II” value was determined as 0.9, the “mid-point (pK) of state II” value is reported as 6.2, the “λmax in state I” value was 347 nm and the “λmax in state III” value is given as 340 nm. Further, the “λmax in state II” value in series [1] is given as 346 nm. Besides, in the series on anti-HA antibodies, the “amount of anti-HA antibody in serum after treatment” value is “dropped significantly (close to background level)”. The Norm. tumor weight in series [4] was 56.5%.
As for “(Az)GGK[HA-Peg12]GGGKPWRAYLELLFPTETLLLELLLA [HA-Peg12-pHLIP4, v1, single HA-Peg12 on first Lys of pHLIP4]”, in series [1], the “cooperativity (n) of state II” value was determined as 1.7, the “mid-point (pK) of state II” value worked out at 6.4, the “λmax in state I” value was 347 nm and the “λmax in state III” value is 337 nm. Further, the “λmax in state II” value in series [1] is 343 nm.
For the substance “AK[HA-Peg24]QNDDQNK[HA-Peg24]PWRAYLDLLFPTDTLLLDLLWA [2(HA-Peg24)-pHLIP3]”, in series [1], the “cooperativity (n) of state II” value stood at 0.9, the “mid-point (pK) of state II” value worked out at 4.6, the “λmax in state I” value is on record as 351 nm and the “λmax in state III” value is recorded as 337 nm. Further, the “λmax in state II” value in series [1] is 350 nm. The substance further came in with a Norm. tumor weight in series [3] of 62.9%.
Regarding “(Az)GGK[HA-Peg24]GGGK[HA-Peg24]PWRAYLELLFPTETLLLELLLA [2(HA-Peg24)-pHLIP4]”, in series [1], the “cooperativity (n) of state II” value is given as 0.7, the “mid-point (pK) of state II” value was determined as 5.8, the “λmax in state I” value is 347 nm and the “λmax in state III” value was 336 nm. Further, the “λmax in state II” value in series [1] amounted to 347 nm.
For “AK[HA-Peg12]QNDDQNK[HA-Peg12]PWRAYLDLLFPTDTLLLDLLWA [2(HA-Peg12)-pHLIP3]”, in series [1], the “cooperativity (n) of state II” value is 1.9, the “mid-point (pK) of state II” value is given as 4.8, the “λmax in state I” value worked out at 351 nm and the “λmax in state III” value is 337 nm. In addition, the “λmax in state II” value in series [1] amounted to 351 nm. The substance further gave a Norm. tumor weight in series [3] of 61.3%.
On to “AK[3xHA-Peg12]QNDDQNK[3xHA-Peg12]PWRAYLDLLFPTDTLLLDLLWA [2(3xHA-Peg12)-pHLIP3]”, for which, in series [1], the “cooperativity (n) of state II” value stood at 1.9, the “mid-point (pK) of state II” value was found to be 4.8, the “λmax in state I” value turned out to be 351 nm and the “λmax in state III” value came to 337 nm. In addition, the “λmax in state II” value in series [1] worked out at 351 nm. In series [3], this substance showed a Norm. tumor weight of 61.6%.

These data come from publication PMC9853002, “Tumor treatment by pHLIP-targeted antigen delivery” (Frontiers in Bioengineering and Biotechnology, 2023).
